Data from patent publication US20250345423A1 (IMUNEXUS THERAPEUTICS, published 2025).

Assays:
[1] = target: T1, CD80 expressed on Raji cells (UniProt P33681 35-288); assay: cell-to-cell binding: Raji cells on transfected bMSCs (summary of Example 2)
T1 construct: whole, on cells; also called Raji cells expressing CD80; B7-1 on Raji cells
T1 sequence (looked up): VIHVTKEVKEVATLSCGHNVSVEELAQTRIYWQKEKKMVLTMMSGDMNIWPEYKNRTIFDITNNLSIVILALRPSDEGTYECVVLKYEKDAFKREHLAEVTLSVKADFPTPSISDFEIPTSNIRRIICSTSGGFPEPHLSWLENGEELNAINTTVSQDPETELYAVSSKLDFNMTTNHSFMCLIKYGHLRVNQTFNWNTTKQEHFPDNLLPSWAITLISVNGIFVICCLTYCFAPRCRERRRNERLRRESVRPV
Experimental: The required number of Raji cells (100,000 cells for each assay well) were centrifuged and resuspended in an appropriate volume of MSCBM (100 μl/100,000 cells), and the cell suspension was added to the wells containing bMSCs. Plates were incubated for 1 h at RT before the wells were very carefully washed 3× with D-PBS. In-cell ELISA assays were carried out two days after transfection with CTLA-4 BD plasmid DNA. The cell supernatant was aspirated, cells were washed 3× with 300 μl D-PBS (137 mM NaCl, 8.1 mM Na₂HPO₄, 2.68 mM KCl, 1.47 mM KH₂PO₄, 0.9 mM CaCl₂), 0.5 mM MgCl₂), and then fixed by adding 50 μl of a formaldehyde solution (4% in PBS, for example Santa Cruz Biotechnology, Cat. No. SANTS-281692). After 15-20 minutes of incubation at RT, the solution was aspirated and cells were washed 3× with 300 μl D-PBS-T (D-PBS containing 0.05% (w/V) Tween-20). Wells were blocked by incubating with 300 μl of 5% skim milk in D-PBS-T for 1 h at RT. The blocking buffer was aspirated and wells were washed with 3×300 μl D-PBS-T before adding 50 μl of the primary antibody diluted in D-PBS-T (see Table 1 for antibodies and their respective dilutions). […] After 5-15 minutes the reaction was stopped by adding 100 μl 1 M HCl, and absorbance at a wavelength of 450 nm was measured using a micro plate reader. […]

[2] = target: T2, human B7-1 (CD80) protein (Acro Biosystems, B71-H5259) (human, UniProt P33681 35-242); assay: in-cell ELISA on transfected bMSCs, anti-CD80 primary antibody, versus control transfection
T2 sequence (looked up): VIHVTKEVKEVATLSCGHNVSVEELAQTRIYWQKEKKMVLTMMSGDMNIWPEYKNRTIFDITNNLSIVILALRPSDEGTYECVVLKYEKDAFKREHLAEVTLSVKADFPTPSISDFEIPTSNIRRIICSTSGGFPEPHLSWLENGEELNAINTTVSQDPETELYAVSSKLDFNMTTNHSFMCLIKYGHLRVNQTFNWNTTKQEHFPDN
Experimental: Cells were plated on a 96-well plate at a density of 10,000 cells per well. The in-cell ELISA was performed the following day.
All in-cell ELISA experiments were carried out in 96-well microtiter plates. For assays in which the primary antibody was directed against the ligand of the CTLA-4 binding domain, the supernatant of cells expressing the CTLA-4 BD was aspirated, replaced with medium containing the ligand (rhSOST (R&D systems 1406-ST-025/CF) or B7-1/CD80 protein (Acro Biosystems, B71-H5259) at varying concentrations, and incubated for 1 h at RT. For assays in which binding of B-lymphocytes to cells expressing the CTLA-4 binding domain was to be assessed, cells from a lymphoblast-like cell line (Raji cells) were used. The required number of Raji cells (100,000 cells for each assay well) were centrifuged and resuspended in an appropriate volume of MSCBM (100 μl/100,000 cells), and the cell suspension was added to the wells containing bMSCs. Plates were incubated for 1 h at RT before the wells were very carefully washed 3× with D-PBS. In-cell ELISA assays were carried out two days after transfection with CTLA-4 BD plasmid DNA. […]

[3] = target: T3, human recombinant Sclerostin (rhSOST, R&D systems 1406-ST-025/CF) (human, UniProt Q9BQB4 24-213); assay: in-cell ELISA on transfected HEK293 cells, anti-SOST primary antibody, versus mock transfection
T3 sequence (looked up): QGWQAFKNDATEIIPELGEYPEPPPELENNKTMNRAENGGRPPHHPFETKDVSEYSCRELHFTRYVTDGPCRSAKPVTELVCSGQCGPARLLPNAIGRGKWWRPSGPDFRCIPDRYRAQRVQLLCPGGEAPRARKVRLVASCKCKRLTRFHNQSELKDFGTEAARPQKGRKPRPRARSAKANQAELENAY
Experimental: The remainder of the protocol was identical for both cell types. One day before transfection, cells were plated on 96-well microtiter plates that had previously been coated with Poly-D-Lysine (PDL, Gibco, Cat. No. A38904-01) according to the manufacturer's instructions. The ideal cell density for subsequent transfection and in-cell ELISA was empirically determined to be 10,000 cells per well at time of seeding. The day after plating, cells were transfected using the Lipofectamine 3000 transfection kit (Invitrogen, Cat. No. L3000-008). The ideal amount of DNA and Lipofectamine per well was empirically determined to be 100 ng (HEK cells) or 200 ng (CHO cells) of DNA and 0.15 μl of Lipofectamine 3000. Transfections were performed according to the manufacturer's instructions.
All in-cell ELISA experiments were carried out in 96-well microtiter plates. […]

B1: BD_B7 (CTLA-4 binding domain directed against B7.1 (CD80)), displayed on the cell surface from the display vector (designed binder)
chain: KAMHVAQPAVVLASSRGIASFVCEYASPGKYTEVRVTVLRQADSQVTEVCAATYMTGNELTFLDDSICTGTSSGNQVNLTIQGLRAMDTGLYICKVELMYPPPYYLGIGNGTQIYVIDPEPSPDSNAGGGGSGGGGSGGGGSAEQKLISEEDLNAVGQDTQEVIVVPHSLPFKVVVISAILALVVLTIISLIILIMLWQKKPR
notes: also called CTLA-4 BD directed against B7-1
Q: Does B1 bind [1]?
A: Result: binds

Q: Does B1 bind [2]?
A: Result: binds

B2: BD_SOST (CTLA-4 binding domain directed against human sclerostin), displayed on the cell surface from the display vector (designed binder)
chain: KAMHVAQPAVVLASSRGIASFVCEYTVSWVDMEVRVTVLRQADSQVTEVCAATYWNGRWLTFLDDSICTGTSSGNQVNLTIQGLRAMDTGLYICKVQLDPSWGYYWQGYEGIGNGTQIYVIDPEPSPDSNAGGGGSGGGGSGGGGSAEQKLISEEDLNAVGQDTQEVIVVPHSLPFKVVVISAILALVVLTIISLIILIMLWQKKPR
Q: Does B2 bind [3]?
A: Result: binds
